For experiment [1], the target named is T1, CD20-Hoc fusion protein (human; T4 phage, UniProt P11836 142-187; P18056 1-376, limits assumed).
T1 construct: also called Hoc-CD20; Hoc-CD
Nature of the experiment: SPR; KD on Hoc divided by KD on Hoc-CD20.

Experiment [2] concerns the target T1, CD20-Hoc fusion protein. The experiment is described as follows: SPR. (In general: In SPR one partner is held on a chip, and binding of the other changes the refractive index at the surface.)
In a further experiment the target is T2, Hoc (T4 phage, UniProt P18056 1-376, limits assumed).
T2 construct: Purified Hoc used as control for the fusion partner; also called outer capsid protein Hoc of T4 phage
The experiment is described as follows: SPR.

In experiment [3] the target is T1, CD20-Hoc fusion protein. The experiment is described as follows: SPR binding kinetics.

Changes are numbered by the printed parent chain. Names may count otherwise.

T1 sequence (P11836 142-187, tags or fused parts left off): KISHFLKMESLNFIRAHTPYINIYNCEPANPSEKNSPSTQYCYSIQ
T2 sequence (P18056 whole entry, the tested form may be a part): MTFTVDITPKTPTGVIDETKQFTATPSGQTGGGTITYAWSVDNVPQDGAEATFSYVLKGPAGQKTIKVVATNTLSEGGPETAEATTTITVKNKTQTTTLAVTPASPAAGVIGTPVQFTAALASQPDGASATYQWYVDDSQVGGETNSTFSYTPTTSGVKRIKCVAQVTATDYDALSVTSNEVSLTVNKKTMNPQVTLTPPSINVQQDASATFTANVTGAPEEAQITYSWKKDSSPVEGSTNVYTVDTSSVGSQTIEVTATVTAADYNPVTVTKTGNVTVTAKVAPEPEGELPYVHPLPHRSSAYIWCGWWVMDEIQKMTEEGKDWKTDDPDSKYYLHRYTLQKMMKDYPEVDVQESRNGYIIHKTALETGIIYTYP

B1: M24E (VHH)
VHH: DVQLQASGGGLVQAGGSLRLSCAASGSTFSIKHHGWYRRAPGNQREWVAGISSENITNVAEAVKGRFTISRDNAKNTVYLQMNSLKVEDTAVYYCYAQDNDYRFLHRFWGQGTQVTVSL
notes: also called bt-M24E; anti-CD20 sdAb M24E
With B1, the “Ratio Hoc KD/Hoc-CD20 KD” value in the experiment with CD20-Hoc fusion protein [1] turned out to be 40 ratio. Besides, in the experiment with CD20-Hoc fusion protein [2], the Kd (commonly the constant that tells how readily two partners part at equilibrium) is 5.7 nM; the koff (in general, the first-order rate constant of dissociation) came out at 0.0043 s⁻¹; the kon (in general, the rate constant with which the complex forms) stood at 750000 M⁻¹ s⁻¹. Moreover, in the experiment with Hoc, the Kd was 230 nM, the koff worked out at 0.046 s⁻¹ and the kon was determined as 200000 M⁻¹ s⁻¹. In addition, the “differential binding to CD20-Hoc fusion against Hoc” value (“differential binding” for short) with CD20-Hoc fusion protein [3] is around 1000 fold.

B2: M28C (VHH)
VHH: B1 VHH with S52N, E61G, Y94F
notes: also called bt-M28C; anti-CD20 sdAb M28C
For the molecule B2, the “Ratio Hoc KD/Hoc-CD20 KD” value in the experiment with CD20-Hoc fusion protein [1] worked out at 353 ratio. In the experiment with CD20-Hoc fusion protein [2], this molecule returned a Kd of 15 nM, a koff of 0.0045 s⁻¹ and a kon of 300000 M⁻¹ s⁻¹. In the experiment with Hoc, this molecule gave a Kd of 5300 nM, a koff of 0.36 s⁻¹ and a kon of 68000 M⁻¹ s⁻¹. The “differential binding” value in the experiment with CD20-Hoc fusion protein [3] is around 1000 fold.

B3: M112D (VHH)
VHH: B1 VHH with G15E, S30G, D101N
notes: also called bt-M112D; anti-CD20 sdAb M112D
For B3, the “Ratio Hoc KD/Hoc-CD20 KD” value in the experiment with CD20-Hoc fusion protein [1] was found to be 81 ratio. In the experiment with CD20-Hoc fusion protein [2], binding was put at a Kd of 26 nM, the koff came out at 0.007 s⁻¹ and the kon was 280000 M⁻¹ s⁻¹. Moreover, in the experiment with Hoc, the Kd turned out to be 2100 nM, the koff is 0.32 s⁻¹ and the kon turned out to be 150000 M⁻¹ s⁻¹. For the same molecule, the “differential binding” value with CD20-Hoc fusion protein [3] was around 100 fold.

Values taken from patent US20180079822A1 (UNITED STATES OF AMERICA AS REPRESENTED BY THE SECRETARY OF …, published 2018).
